Experimental data: patent US20050196797A1 (JAPAN SCIENCE AND TECHNOLOGY AGENCY, published 2005)

Molecular target: human SMG-1 (hSMG-1) (human, UniProt Q96Q15 1-3661, limits assumed)
Assay: cell-based or functional assay

Sequence of human SMG-1 (hSMG-1) (Q96Q15 whole entry): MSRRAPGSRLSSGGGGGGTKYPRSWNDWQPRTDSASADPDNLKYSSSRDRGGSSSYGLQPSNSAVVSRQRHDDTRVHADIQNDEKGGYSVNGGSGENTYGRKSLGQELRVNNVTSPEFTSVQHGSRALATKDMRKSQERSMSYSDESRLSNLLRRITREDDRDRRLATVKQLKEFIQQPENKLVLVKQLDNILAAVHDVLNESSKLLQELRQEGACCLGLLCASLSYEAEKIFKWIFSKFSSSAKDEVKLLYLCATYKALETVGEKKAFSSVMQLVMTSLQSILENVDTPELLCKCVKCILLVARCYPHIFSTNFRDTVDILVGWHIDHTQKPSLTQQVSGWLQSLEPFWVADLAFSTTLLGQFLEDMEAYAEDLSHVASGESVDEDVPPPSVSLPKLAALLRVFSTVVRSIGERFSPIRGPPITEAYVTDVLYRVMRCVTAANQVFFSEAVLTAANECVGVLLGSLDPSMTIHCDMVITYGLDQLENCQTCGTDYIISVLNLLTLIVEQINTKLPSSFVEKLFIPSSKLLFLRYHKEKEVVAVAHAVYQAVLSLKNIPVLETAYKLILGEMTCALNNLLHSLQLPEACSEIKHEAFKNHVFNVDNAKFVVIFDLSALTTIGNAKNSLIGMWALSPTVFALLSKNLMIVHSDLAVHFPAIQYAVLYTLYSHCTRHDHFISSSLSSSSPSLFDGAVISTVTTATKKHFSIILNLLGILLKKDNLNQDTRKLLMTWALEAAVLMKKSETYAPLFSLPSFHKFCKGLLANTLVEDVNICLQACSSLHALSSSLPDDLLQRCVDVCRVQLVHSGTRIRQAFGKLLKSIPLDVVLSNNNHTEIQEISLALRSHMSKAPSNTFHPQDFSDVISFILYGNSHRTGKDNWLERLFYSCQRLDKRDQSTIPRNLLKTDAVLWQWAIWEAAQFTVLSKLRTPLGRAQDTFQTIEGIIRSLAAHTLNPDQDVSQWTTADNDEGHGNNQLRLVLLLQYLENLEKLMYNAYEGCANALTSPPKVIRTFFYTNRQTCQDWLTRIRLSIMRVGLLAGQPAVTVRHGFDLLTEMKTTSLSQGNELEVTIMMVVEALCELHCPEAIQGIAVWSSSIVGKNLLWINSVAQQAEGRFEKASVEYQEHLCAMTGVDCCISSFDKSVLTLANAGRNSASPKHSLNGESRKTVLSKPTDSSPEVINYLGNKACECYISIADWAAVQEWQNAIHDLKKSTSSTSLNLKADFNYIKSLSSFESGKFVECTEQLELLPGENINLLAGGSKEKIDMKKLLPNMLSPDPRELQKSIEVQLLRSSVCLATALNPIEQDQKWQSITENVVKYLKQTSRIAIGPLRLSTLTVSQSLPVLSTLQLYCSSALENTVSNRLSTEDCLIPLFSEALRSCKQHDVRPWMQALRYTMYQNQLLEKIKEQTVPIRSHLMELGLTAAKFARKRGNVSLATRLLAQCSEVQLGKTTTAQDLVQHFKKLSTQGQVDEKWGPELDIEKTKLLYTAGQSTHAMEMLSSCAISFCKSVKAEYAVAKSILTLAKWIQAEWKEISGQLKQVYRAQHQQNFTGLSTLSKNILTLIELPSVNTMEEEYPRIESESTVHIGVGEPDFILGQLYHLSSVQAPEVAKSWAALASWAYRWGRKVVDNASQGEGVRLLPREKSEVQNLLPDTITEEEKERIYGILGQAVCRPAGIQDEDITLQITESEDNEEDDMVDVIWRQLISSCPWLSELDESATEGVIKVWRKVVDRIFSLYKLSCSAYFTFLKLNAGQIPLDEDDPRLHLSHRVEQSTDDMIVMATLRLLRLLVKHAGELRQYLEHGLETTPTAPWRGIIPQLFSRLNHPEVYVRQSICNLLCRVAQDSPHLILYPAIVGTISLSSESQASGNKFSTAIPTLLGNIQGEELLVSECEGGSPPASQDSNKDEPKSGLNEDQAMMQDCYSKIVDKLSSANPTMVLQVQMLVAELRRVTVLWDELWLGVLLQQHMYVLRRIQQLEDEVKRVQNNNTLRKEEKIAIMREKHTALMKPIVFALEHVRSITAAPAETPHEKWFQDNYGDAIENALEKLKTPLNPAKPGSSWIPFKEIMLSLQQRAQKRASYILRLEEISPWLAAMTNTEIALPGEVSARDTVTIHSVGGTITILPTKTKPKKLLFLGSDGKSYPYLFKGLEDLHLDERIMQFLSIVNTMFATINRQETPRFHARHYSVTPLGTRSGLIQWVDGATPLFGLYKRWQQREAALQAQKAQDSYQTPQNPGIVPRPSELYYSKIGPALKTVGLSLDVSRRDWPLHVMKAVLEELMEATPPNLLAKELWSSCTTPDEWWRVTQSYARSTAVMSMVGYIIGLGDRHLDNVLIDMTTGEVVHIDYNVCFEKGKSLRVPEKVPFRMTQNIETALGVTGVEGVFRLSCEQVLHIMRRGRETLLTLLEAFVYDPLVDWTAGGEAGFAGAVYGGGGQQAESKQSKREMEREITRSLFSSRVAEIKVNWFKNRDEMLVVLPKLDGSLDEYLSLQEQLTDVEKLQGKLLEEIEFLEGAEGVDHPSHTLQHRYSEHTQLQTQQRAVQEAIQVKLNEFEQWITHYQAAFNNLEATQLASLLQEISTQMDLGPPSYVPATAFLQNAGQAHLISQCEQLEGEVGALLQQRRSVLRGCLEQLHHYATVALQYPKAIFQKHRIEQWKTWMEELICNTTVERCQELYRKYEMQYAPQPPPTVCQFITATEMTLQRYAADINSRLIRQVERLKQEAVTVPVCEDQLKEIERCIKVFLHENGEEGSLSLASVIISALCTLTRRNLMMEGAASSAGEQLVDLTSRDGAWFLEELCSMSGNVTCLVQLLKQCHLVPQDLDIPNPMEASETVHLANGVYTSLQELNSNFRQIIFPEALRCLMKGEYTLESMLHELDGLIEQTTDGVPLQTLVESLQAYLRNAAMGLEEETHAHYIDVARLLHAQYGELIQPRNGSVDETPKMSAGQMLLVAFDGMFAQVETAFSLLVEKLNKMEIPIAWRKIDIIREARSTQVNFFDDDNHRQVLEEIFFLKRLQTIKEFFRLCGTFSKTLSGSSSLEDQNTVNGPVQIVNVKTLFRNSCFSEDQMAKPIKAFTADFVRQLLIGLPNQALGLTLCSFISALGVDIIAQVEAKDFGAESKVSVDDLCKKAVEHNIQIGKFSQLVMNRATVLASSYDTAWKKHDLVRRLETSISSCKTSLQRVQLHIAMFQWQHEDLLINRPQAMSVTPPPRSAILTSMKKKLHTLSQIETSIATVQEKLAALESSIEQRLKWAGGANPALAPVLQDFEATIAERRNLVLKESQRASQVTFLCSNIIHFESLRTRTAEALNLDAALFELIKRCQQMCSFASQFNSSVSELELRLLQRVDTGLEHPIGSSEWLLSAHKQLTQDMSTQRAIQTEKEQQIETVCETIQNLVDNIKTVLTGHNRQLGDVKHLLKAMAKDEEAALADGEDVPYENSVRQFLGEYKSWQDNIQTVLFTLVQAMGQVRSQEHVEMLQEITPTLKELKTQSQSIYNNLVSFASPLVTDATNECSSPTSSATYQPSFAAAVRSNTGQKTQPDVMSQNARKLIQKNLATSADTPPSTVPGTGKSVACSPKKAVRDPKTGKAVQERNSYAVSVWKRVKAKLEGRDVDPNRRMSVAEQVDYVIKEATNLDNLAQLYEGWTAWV

B1: SMGBP1 (SMG Binding Protein 1) (other)
chain: MAGPVSLRDLLMGASAWMGSESPGGSPTEGGGSAAGGPEPPWREDEICVVGIFGKTALRLNSEKFSLVNTVCDRQVFPLFRHQDPGDPGPGIRTEAGAVGEAGGAEDPGAAAGGSVRGSGAVAEGNRTEAGSQDYSLLQAYYSQESKVLYLLLTSICDNSQLLRACRALQSGEAGGGLSLPHAEAHEFWKHQEKLQCLSLLYLFSVCHILLLVHPTCSFDITYDRVFRALDGLRQKVLPLLKTAIKDCPVGKDWKLNCRPCPPRLLFLFQLNGALKVVPPRNQDPAHPDKPKKHSPKRRLQHALEDQIYRIFRKSRVLTNQSINCLFTVPANQAFVYIVPGSQEEDPVGMLLDQLRSHCTVKDPESLLVPAPLSGPRRYQVMRQHSRQQLSFHIDSSSSSSSGQLVDFTLWEFLWQHVELVLSKKGFDDSVGRNPQPSHFELPTYQKWISAASKLYEVAIDGKEEDLGSPTGELTSKILSSIKVLEGFLDIDTKFSENRCQKALPMAHSAYQSNLPHNYTMTVHKNQLAQALRVYSQHARGPAFHKYAMQLHEDCYKFWSNGHQLCEERSLTDQHCVHKFHSLPKSGEKPEADRNPPVLYHNSRARSTGACNCGRKQAPRDDPFDIKAANYDFYQLLEEKCCGKLDHINFPVFEPSTPDPAPAKNESSPAPPDSDADKLKEKEPQTQGESTSLSLALSLGQSTDSLGTYPADPQAGGDNPEVHGQVEVKTEKRPNFVDRQASTVEYLPGMLHSNCPKGLLPKFSSWSLVKLGPAKSYNFHTGLDQQGFIPGTNYLMPWDIVIRTRAEDEGDLDTNSWPAPNKAIPGKRSAVVMGRGRRRDDIARAFVGFEYEDSRGRRFMCSGPDKVMKVMGSGPKESALKALNSDMPLYILSSSQGRGLKPHYAQLMRLFVVVPDAPLQIILMPQVQPGPPPCPVFYPEKQEITLPPDGLWVLRFPYAYVTERGPCFPPKENVQLMSYKVLRGVLKAVTQ
phosphorylation of hUPF1 (P-hUPF1/hUPF1) in HeLa TetOff cells transfected with siRNA against p130, relative to control siRNA: ~40%
